# From PMC3141380, “Crystal structure of alkyl hydroperoxidase D like protein PA0269 from Pseudomonas aeruginosa: Homology of the AhpD-like structural family” (BMC Structural Biology, 2011)
# Columns and labels:
# [1] = target: the molecule itself; test: SEC; Superdex 200 26/60, 10 mM HEPES pH 7.5, 0.25 M NaCl, 0.5 mM TCEP; data not shown
# [2] = target: the molecule itself; test: crystal structure; SeMet protein, space group P6(3)22, one molecule in the asymmetric unit; hexamer built by crystallographic symmetry; crystals from 0.1 M Tris pH 7.6, 0.2 M NaCl, phosphate, 20°C
protein,measurement,setting,value
"Alkyl hydroperoxidase D like protein PA0269 from Pseudomonas aeruginosa (natural protein, P. aeruginosa, UniProt Q9I6M1 1-145, looked up, selenomethionine (four Se-Met residues found in the structure, Se in partial occupancy), PA0269 (AhpD-like protein), Pseudomonas aeruginosa strain 633 (ATCC 17933D) genomic DNA, full length protein of 145 aa, cloned in pET15b; A native sample with and without the His tag was also made; also called P. aeruginosa AhpD; putative AhpD; source: E. coli BL21 (DE3), M9 selenomethionine media, purified (DE52, Ni-NTA, Superdex 200 gel filtration)) MTTRLEWAKASPDAYAAMLGLEKALAKAGLERPLIELVYLRTSQINGCAYCVNMHANDARKAGETEQRLQALCVWQETPYFTPRERAALAWTEQLARLSQGALPHGLLDELREHFDDKEIAELTLAVSAINAWNRFGVGMGMQPE",stoichiometry N,[1],5.5
same,stoichiometry N,[2],6
